What was measured:
[1] = system: NFκB-mediated transcription; assay: NFκB activation in an over-expression system; type: cell-based
primary human T cells = assay: transfection of primary human T cells, viability by light scatter and apoptosis by TUNEL; type: cell-based; settings: PBL from HIV-negative donors transfected with pcDNA3 HA casp8p41, compared with GSK3β control vector
Description: Primary human T cells were tested for their response to expression of casp8p41 polypeptide by transfecting cells with a vector encoding casp8p41 polypeptide, or with a control vector encoding glycogen synthase kinase 3β (GSK3β; Kim et al., J Biol Chem., 278:13995-14001 (2003)). PBL from HIV-negative donors were isolated and transfected with 2 μg/10×10^6 cells with pcDNA3 HA GSK3β (Ougolkov et al., Cancer Res., 65:2076-2081 (2005)) or pcDNA3 HA casp8p41 using nucleofectin (AMAXA, MD) and program U14. Transfected cells were analyzed for changes in viability by light scatter or for apoptosis by TUNEL staining.

HeLa cells = assay: transient expression in HeLa cells, TUNEL, active caspase-3 and Annexin-V staining; type: cell-based; settings: cells transfected with pEGFPC1casp8p41
Description: The effect of transient expression of casp8p41 polypeptide in HeLa cells was investigated. HeLa cells were purchased from ATCC and maintained in Dulbecco's Modified Eagle Medium (DMEM; GIBCO) supplemented with 10% (v/v) FBS, 1% penicillin and streptomycin, and 2 mM L-glutamine. The cells were incubated at 37° C. in a humidified atmosphere containing 5% CO2 and 95% air. Exponentially growing cells were seeded at 2500-5000 cells/well in a 96-well plate. The cells were transfected with a DNA plasmid expressing GFP (pEGFPC1, BD Biosciences Clontech, Palo Alto, Calif.), or with a plasmid expressing casp8p41 polypeptide as a fusion to the C-terminus of GFP (pEGFPC1casp8p41) using Fugene 6 (2 μL per μg DNA), according to the manufacturer's protocol. […]
HeLa cells transfected with pEGFPC1 or pEGFPC1casp8p41 were analyzed by confocal microscopy following staining with DAPI to visualize cell nuclei and TUNEL staining to detect apoptosis. […]
Cells transfected with pEGFPC1 and pEGFPC1casp8p41 were also subjected to Annexin-V PE, active caspase-3, and TUNEL staining and analyzed for cell death by flow cytometry, gating specifically on GFP-positive cells. […] GFP and annexin-V PE double-positive cells were analyzed by flow cytometry at 30,000 events per sample. […]

[2] = system: cytosols from Jurkat T cells; assay: apoptotic signaling cascade in cell-free system (Jurkat cell extracts), Western blot; type: biochemical; settings: added to cytosols from Jurkat T cells
Description: The ability of the procaspase-8 cleavage fragment p41 (hereafter referred to as casp8p41) to initiate an apoptotic signaling cascade in a cell-free system was tested. The cell free system was used previously to reveal the signaling pathway used by HIV protease to initiate apoptosis.
Jurkat cells were purchased from ATCC (Rockville, Md.) and maintained in Dulbecco's Modified Eagle Medium (DMEM) or RPMI1640 (GIBCO) supplemented with 10% (v/v) FBS, 1% penicillin and streptomycin, and 2 mM L-glutamine. The cells were incubated at 37° C. in a humidified atmosphere containing 5% CO2 and 95% air. Jurkat cell extracts were prepared as described previously (Nie et al., Cell Death Differ., 9:1172-84 (2002)). Briefly, cells (0.5×10^6 cells/mL) were harvested by centrifugation at 16000×g for 5 minutes at 4° C. The cell pellet was washed twice with ice-cold PBS (pH 7.4), followed by a single wash with ice-cold caspase buffer (20 mM PIPES, 100 mM NaCl, 10 mM DTT, 1 mM EDTA, 0.1% CHAPS, 250 mM sucrose, pH 7.2). […] Polypeptide concentrations were determined using a BCA protein assay kit (Pierce Chemical Co., Rockford, Ill.), and the resultant suspension was incubated with either HIV protease or casp8p41 polypeptide. […]

procaspase-8 = target: T1, procaspase-8 (Homo sapiens, UniProt Q14790, A331P); assay: in vitro cleavage of 35S methionine-labeled procaspase-8, autoradiography and immunoblotting; type: biochemical; settings: 50 mM NaOAc (pH 4.9), 200 mM NaCl, 5 mM DTT, 10% glycerol
T1 construct: amino acids 355 and 356 were mutated in full-length caspase-8; made in house; host or cells: cell-free TNT Quick coupled transcription/translation system (Promega)
Description: The fusion polypeptide, Flag-procaspase-8-Myc, was prepared by TNTR Quick coupled transcription/translation systems (Promega, Madison, Wis.). Briefly, 1 μg of pcDNA3Flag-procaspase-8-Myc or pcDNA3Flag (as a control) was added to a 50 μL nuclease-free reaction mixture containing 40 μL of TNT Quick Master Mix and 1 μL of 1 mM […] methionine. The reaction was carried out at 30° C. for 90 minutes and stopped by adding 20 μg/mL of cycloheximide (CI-IX) and 200 μg/mL of RNase and incubating the mixture at 30° C. for 5 minutes. ^35S methionine-labeled Flag-procaspase-8-Myc fusion polypeptide was prepared by adding 40 μCi of ^35S methionine instead of 1 μL of 1 mM methionine. The reaction mixture was separated by SDS-PAGE on a 10-15% gel and visualized by autoradiography. […]
The ^35S methionine-labeled Flag-procaspase-8-Myc fusion polypeptide produced in vitro was incubated with HIV-1 protease purchased from Sachem Biosciences (King of Prussia, Pa.). […] After cleavage of ^35S methionine-labeled Flag-procaspase-8-Myc fusion polypeptide by HIV-1 protease, the products were analyzed by autoradiography (FIG. 1C, top) and immunoblotting using antibodies directed against the Flag (FIG. 1C, middle) and Myc (FIG. 1C, bottom) epitopes. […]

T1 sequence (Q14790 whole entry A331P): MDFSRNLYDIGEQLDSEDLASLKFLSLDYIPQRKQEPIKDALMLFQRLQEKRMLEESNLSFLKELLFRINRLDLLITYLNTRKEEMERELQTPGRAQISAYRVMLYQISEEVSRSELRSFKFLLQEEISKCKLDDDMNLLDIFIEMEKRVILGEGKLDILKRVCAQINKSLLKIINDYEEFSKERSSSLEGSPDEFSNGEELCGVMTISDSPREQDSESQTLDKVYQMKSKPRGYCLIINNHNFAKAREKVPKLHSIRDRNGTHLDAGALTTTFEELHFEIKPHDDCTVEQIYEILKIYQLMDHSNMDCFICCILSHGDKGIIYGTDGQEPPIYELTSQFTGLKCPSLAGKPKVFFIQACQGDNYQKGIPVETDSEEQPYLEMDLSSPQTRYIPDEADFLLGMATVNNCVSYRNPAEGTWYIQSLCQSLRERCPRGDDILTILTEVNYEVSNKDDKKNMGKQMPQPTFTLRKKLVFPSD

B1: caspase-8 polypeptide: full-length caspase-8 polypeptide, over-expressed (protein, UniProt Q14790 1-479, looked up)
chain: MDFSRNLYDIGEQLDSEDLASLKFLSLDYIPQRKQEPIKDALMLFQRLQEKRMLEESNLSFLKELLFRINRLDLLITYLNTRKEEMERELQTPGRAQISAYRVMLYQISEEVSRSELRSFKFLLQEEISKCKLDDDMNLLDIFIEMEKRVILGEGKLDILKRVCAQINKSLLKIINDYEEFSKERSSSLEGSPDEFSNGEELCGVMTISDSPREQDSESQTLDKVYQMKSKPRGYCLIINNHNFAKAREKVPKLHSIRDRNGTHLDAGALTTTFEELHFEIKPHDDCTVEQIYEILKIYQLMDHSNMDCFICCILSHGDKGIIYGTDGQEAPIYELTSQFTGLKCPSLAGKPKVFFIQACQGDNYQKGIPVETDSEEQPYLEMDLSSPQTRYIPDEADFLLGMATVNNCVSYRNPAEGTWYIQSLCQSLRERCPRGDDILTILTEVNYEVSNKDDKKNMGKQMPQPTFTLRKKLVFPSD
modifications: full-length
notes: full-length caspase-8 polypeptide, over-expressed
NFκB activation [1]: increase NFκB activation

B2: casp8p41 polypeptide: procaspase-8 cleavage fragment p41 generated by HIV protease (SEQ ID NO:2) (protein, listed as Homo sapiens)
chain: MDFSRNLYDIGEQLDSEDLASLKFLSLDYIPQRKQEPIKDALMLFQRLQEKRMLEESNLSFLKELLFRINRLDLLITYLNTRKEEMERELQTPGRAQISAYRVMLYQISEEVSRSELRSFKFLLQEEISKCKLDDDMNLLDIFIEMEKRVILGEGKLDILKRVCAQINKSLLKIINDYEEFSKERSSSLEGSPDEFSNGEELCGVMTISDSPREQDSESQTLDKVYQMKSKPRGYCLIINNHNFAKAREKVPKLHSIRDRNGTHLDAGALTTTFEELHFEIKPHDDCTVEQIYEILKIYQLMDHSNMDCFICCILSHGDKGIIYGTDGQEPPIYELTSQFTGLKCPSLAGKPKVF
NFκB activation [1]: two-fold more than full-length caspase-8 polypeptide | level of apoptosis (primary human T cells): induced a significantly greater level of apoptosis | TUNEL positivity and active caspase-3 expression, flow cytometry gated on GFP-positive cells (HeLa cells): induces TUNEL positivity and active caspase-3 expression | apoptotic signaling: Bid cleavage, cytochrome c release, caspase-9 and PARP cleavage [2]: resulted in cleavage of Bid to p15 tBid, release of cytochrome c from the mitochondrial fraction into the cytosol, and cleavage of caspase-9 and PARP

B3: renin: another aspartyl protease (protein, UniProt P00797 67-406, looked up)
Renin: LTLGNTTSSVILTNYMDTQYYGEIGIGTPPQTFKVVFDTGSSNVWVPSSKCSRLYTACVYHKLFDASDSSSYKHNGTELTLRYSTGTVSGFLSQDIITVGGITVTQMFGEVTEMPALPFMLAEFDGVVGMGFIEQAIGRVTPIFDNIISQGVLKEDVFSFYYNRDSENSQSLGGQIVLGGSDPQHYEGNFHYINLIKTGVWQIQMKGVSVGSSTLLCEDGCLALVDTGASYISGSTSSIEKLMEALGAKKRLFDYVVKCNEGPTLPDISFHLGGKEYTLTSADYVFQESYSSKKLCTLAIHAMDIPPPTGPTWALGATFIRKFYTEFDRRNNRIGFALAR
cleavage of Flag-procaspase-8-Myc fusion polypeptide (procaspase-8): did not cause procaspase 8 cleavage
